Measurements: patent publication US20220153835A1

Assays:
[1] = target: LAG-3-huIgG1 Fc fusion protein; assay: competition binding assay, LAG-3-Ig on Raji cells
[2] = target: LAG-3 expressed on cells (species not stated at the experiment) (human) (UniProt P18627)

IC50 [1]: 2.3 nM | IFN-γ expression, cells stimulated with CMV peptides (fold increase) [2]: 1.4 | IFN-γ expression, cells stimulated with anti-CD3 (0.1 µg/mL) (fold increase) [2]: 3
B1: murine anti-LAG-3 mAb BAP050 (antibody, V domains shown)
VH: QIQLVQSGPELKKPGETVKISCKASGFTLTNYGMNWVRQTPGKGLKWMGWINTDTGEPTYADDFKGRFAFSLETSASTASLQINNLKNADTATYFCARNPPYYYGTNNAEAMDYWGQGTAVTVSS
VL: DIQMTQTTSSLSASLGDRVTISCSSSQDISNYLNWYQQKPDGTVKVLIYYTSTLHLGVPSRFSGSGSGTDYSLTISNLELEDIATYYCQQYYNLPWTFGGGTKLEIK
IFN-γ expression, cells stimulated with Staphylococcal enterotoxin B (SEB) (3 µg/mL) (fold increase) [2]: 1.6
